Source: PMC3086059

Biological target: Mua fused to the T18 or T25 fragment of adenylate cyclase (BACTH) (Helicobacter pylori)
Experiment: two-hybrid
Conditions: scale: Miller units per mg of bacterial dry weight

Mua fused to the T18 or T25 fragment of adenylate cyclase (BACTH) (natural protein)
beta-galactosidase activity: 1920 to 2980
